Data: the supplement of paper PMC12764529
± gives the half width of the 95% confidence interval.

Test: folding stability dG unfold from chymotrypsin proteolysis; higher = more stable
Outline: (§1)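 Designed mini-proteins (under 80 residues, no cysteine) in a PA-tagged cDNA display construct were digested with trypsin and chymotrypsin. Each protease was used at 11 concentrations (threefold dilutions) plus a no-protease condition, followed by sequencing. K50 was inferred by Bayesian fitting of sequencing counts, and unfolding free energy was derived against a sequence-predicted unfolded-state K50 and a shared folded-state K50, per protease or combined. Only designs with AlphaFold2 dimer inter-PAE above 15 were kept.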

Row | Sequence | folding stability dG unfold
1 | SAGGSAGGLPEGDIYRIRVTLPNGNTFTITFPVKSVEQAKDFAKSFLESLGLPDVKVDIEPVPVSAGGSAGG [r6_844_TrROS] | 4.2 ± 0.044 kcal/mol
2 | SAGGSAGGSAGSMSVTLSTTVEVTVEPLPDYTIVTVTTTTTFPDGSTTTTVTTTPVPPDLGSAGGSAGGSAG [r3_330_JUSTAS] | 1.8 ± 0.15 kcal/mol
3 | SAGMTQTLEVSGPSVKVTLTVAPDGSVTITTTDPNGNTTTTSLYVPPGVPVTIPLPFGGTTITATVTPASAG [r5_237_JUSTAS] | 2.11 ± 0.071 kcal/mol
4 | SAGGSAGGSGDKDEVDPNKNISPIPPVKATIFPPDGTPRTVTFTSEEELKAYAEARGWTIEVPSAGGSAGGS [r12_244_JUSTAS] | 0.231 ± 0.29 kcal/mol
5 | SAGGSAGGDYERDPNNGKMKMKPKVEPPPPPKIIQIQIPFPEEADDFMNELQDNGYPIYLSPGGSAGGSAGG [r6_872_TrROS] | 0.179 ± 0.14 kcal/mol
6 | SAGGSAGGSAGDVEVRFEVKFTPDGTLIIKAEIRLPDIPDVTIRVEAVILPNGEILVKVSSAGGSAGGSAGG [r11_483_TrMRF] | 3.06 ± 0.15 kcal/mol
7 | SAGGSAKWELSIWIPAPGMTPDKARELARDIAREFAQPGWKVKDIEVEPVNPDENVYRGTVTIEPPSAGGSA [r15_96_TrROS] | 1.82 ± 0.11 kcal/mol
8 | SMVVVKVTASSPEEAEALAKEAEEKLKEEIEKKIKELKKKGINPKELNLNIKIEIETLSYDPANPGKNTPSA [r9_961_JUSTAS] | 0.998 ± 0.066 kcal/mol
9 | SAGGSAGGSPRVLEIRRYPLPDGGYLLEVRFEKETLFIPVPENVPPHSLEEIEIPLLLGEKPESAGGSAGGS [r12_673_TrMRF] | 1.6 ± 0.027 kcal/mol
10 | SAGGSMRFKIEDINIGIIPHPPGWLLIPITVKVKFEEPDPDNGEPKTVEHEFPIMIMMPKDDLDDLSAGGSA [r2_184_TrROS] | 2.68 ± 0.045 kcal/mol
11 | SAGGSAGGSAGGSMLVELDENGKTLTIYDEETQELIEVEVEPAPPVEETVTEVSEEELKSAGGSAGGSAGGS [r4_56_TrROS_Hall] | 0.000558 ± 0.08 kcal/mol
12 | SAMKITIEVIKLPDGYYVVRITVYDKNGEKVEERELVFSSLEDLLAALKELFPDQKVTVEIRKVTKEELSAG [r14_964_TrROS_Hall] | 4.14 ± 0.23 kcal/mol
13 | SAGGSAGGSADKIPVKIKVKLKDGDKEYEVTVTVTLDVNDPNLDAFAKELASSGKIEEVEASAGGSAGGSAG [r3_30_TrMRF] | 1.03 ± 0.15 kcal/mol
14 | SAGGSAGGSAGKIEIKVVKKTPNYVYYEIRFEETKKTIIVKAKSKEDAEEAAKKLLKELKSAGGSAGGSAGG [r11_848_TrROS_Hall] | 2.88 ± 0.062 kcal/mol
15 | SAYIQIERDPDGYIKIEVWFDSPDEGKEFVKEFVKELADQGLDIKIKVTKIEPYPGDPNMYRVSYTIKVSAG [r14_119_TrROS] | 3.857 ± 0.038 kcal/mol
16 | SAGGSAGGSAGNLKVVDISIWRTDDMRYIMFKLEGDGLTIMIWVPPKEPGKIQIMIFPLDSAGGSAGGSAGG [r11_1046_TrROS] | 4.51 ± 0.1 kcal/mol
17 | SAGGSAGGMTFVDLGEDKPVVIEVPPRPETGLYPVVIHPPEKPVFVEVESPEEAIEAAEKLVEGSAGGSAGG [r6_715_TrMRF] | 0.788 ± 0.045 kcal/mol
18 | SAGGSAMPEDTPFVVTKTTEYRLPDGSRVTFEPVPETGKTLVTFTPPDGSSERVWLTPEEAEKLLASAGGSA [r15_2_JUSTAS] | 1.3 ± 0.1 kcal/mol
19 | SAGGKPLEPKIEVEVIPLPSGERVITLRVEVPPNDPLKIKFPGLKKEVEFPGDDEVEFRVVVPPDSFSAGGS [r16_56_TrMRF] | 0.631 ± 0.1 kcal/mol
20 | SAGGSVTTETDEYFYPDNLFTVAKTTLYVGSGPVEATAVSYPTFTLVNVHYPDGSVDTFLFTLTDDSSAGGS [r16_108_TrMRF] | 3.56 ± 0.06 kcal/mol
21 | SAGGSAGGKKNNKPKPILVKIEIINKNGKKKVFTKEFKSLEEAKKFIEKALPKGYSAKIEIIPGSAGGSAGG [r6_289_TrMRF] | 3.36 ± 0.062 kcal/mol

Test: folding stability dG unfold (combined trypsin and chymotrypsin); higher = more stable
Outline: as §1

Row | Sequence | folding stability dG unfold
22 | SAGGSAGGSAMTTTSTSTYPDSITTTTTTTVDGTYIITTTTFYPATGTTTTTTTTLPPSLTSAGGSAGGSAG [r3_316_JUSTAS] | 2.41 ± 0.048 kcal/mol
23 | SAGGSAGGSAGGSKKKKIIIVVPKEELSEEQIKALKDLGYEIEIVEVEKKPVKVKKKKKSAGGSAGGSAGGS [r4_294_TrROS_Hall] | 1.53 ± 0.22 kcal/mol
24 | SMIEELSDEEKVALAKELAEEIKKAREGGKPEEIPELIKRLKEVLEAASPPVQEEVLALIKEIKIPPKELSA [r9_182_JUSTAS] | 2.23 ± 0.076 kcal/mol
25 | SAGGKKTVKIEIVLPKEELEELLKKLLEEAKKKGLKVEVKVELKEVEVEVNGKKKKVLVLKVEIKVEPSAGG [r13_974_TrROS_Hall] | 3.55 ± 0.19 kcal/mol
26 | SAPPTVKINWERVRRNGKRYYMIRVEITHPNNGKEREHTFMYDDPEDFLDNLLKLPNIDRVEIEDIYPMSAG [r14_464_TrROS] | 2.12 ± 0.51 kcal/mol
27 | SAGGSAGDKVVTVTATFTTTDPNGNEITIIAPITFLNGEGTAVIDAKAFNPTGELIAEATITVPIGSAGGSA [r15_967_TrMRF] | 2.07 ± 0.087 kcal/mol
28 | SMEEAIEEAIKKNEEAIAAGGGPVKVELEVPGYRIDLTFSPNGLKITNIEEKNSPDGIPSVKSTSDVPPPSA [r9_308_JUSTAS] | 0.284 ± 0.14 kcal/mol
29 | SAGGKIEELAKELAKKLNIEKVEVEEKDGKLVVKLVVKDKKTNKYYRITIEVDDDGNIKISIEPLPPSAGGS [r16_433_TrROS_Hall] | 5.12 ± 0.2 kcal/mol
30 | KMEIKIEVEKVKDEETGEEYIEVKIVVKKENVEEALEKVKKILEEEFNYEIVDVKVEKKDDYVVITVKIRLS [r1_337_TrROS_Hall] | 2.89 ± 0.53 kcal/mol
31 | SAGGSAGGSAGGMPPFVELEFVGEFKVNGEKVLVLRLPDGSIRIVNLKTGETITVPASLLSAGGSAGGSAGG [r7_28_JUSTAS] | 2.57 ± 0.067 kcal/mol
